Assay results as given in paper PMC12857291.

Experiments:
[1] = target: MeCP2-MBD aromatic cage mutants, W104, F132, Y141, F142 and F155 to alanine (group as printed for the range of KD limits); experiment: ITC; MicroCal PEAQ-ITC, 15 °C, 750 rpm; peptide (1.5 to 2 mM) in the syringe injected into protein (80 to 100 μM) in the cell; 50 mM HEPES pH 7.5, 200 mM NaCl, 5% glycerol; single-binding site model
[2] = target: MeCP2-MBD domain wild-type, C-terminal 6xHis-tagged (UniProt P51608); experiment: as above
MeCP2-MBD domain wild-type, C-terminal 6xHis-tagged, sequence (P51608 90-162): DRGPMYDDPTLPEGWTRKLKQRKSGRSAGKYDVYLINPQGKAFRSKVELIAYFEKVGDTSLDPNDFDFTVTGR

In the case of “histone H3(15-36)K27me3 peptide (from UniProt P68431 16-37)”, the Kd [1] is reported as > 1000 µM and the Kd [2] is reported as 5.2 µM.
